The source of these data is doi:10.1101/2023.11.19.566349.

What all share (test): EMSA
On the technique in general: In EMSA bound probe runs differently from free probe, usually more slowly.

Series [1] addresses T1, Tric1 SAM Gly241Glu (Arabidopsis thaliana, UniProt Q9SCK3 191-261, G241E).
T1 sequence: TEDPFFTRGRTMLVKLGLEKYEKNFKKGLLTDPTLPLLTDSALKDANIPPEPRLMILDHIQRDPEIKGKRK

Series [2] concerns the target T2, Tric1 SAM Asp235Ala (Arabidopsis thaliana, UniProt Q9SCK3 191-261, D235A).
T2 sequence: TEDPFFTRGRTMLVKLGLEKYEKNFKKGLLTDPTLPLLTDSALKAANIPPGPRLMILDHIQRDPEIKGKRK

The target of series [3] is T3, Tric1 SAM Asp235Ala:Gly241Glu (Arabidopsis thaliana, UniProt Q9SCK3 191-261, D235A;G241E).
T3 sequence: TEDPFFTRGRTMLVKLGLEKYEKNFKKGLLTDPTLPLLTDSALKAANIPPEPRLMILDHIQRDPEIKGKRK

Series [4] deals with T4, Tric1 SAM domain WT (Arabidopsis thaliana, UniProt Q9SCK3 191-261).
T4 sequence: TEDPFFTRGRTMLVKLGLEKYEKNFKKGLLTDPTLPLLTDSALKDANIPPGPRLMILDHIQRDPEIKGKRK

Consider UCGCUUUGCAUGCGA (structured_RNA) [tRNAala T-arm], for which the binding result in series [1] was “no binding”; in series [2], “no binding”; in series [3], “no binding”; in series [4], “binds”.
